Source: patent US20210238260A1 (published 2021)

T1: Factor VIIIa (FVIIIa), from recombinant FVIII (Kogenate FS; Bayer healthcare) activated with alpha-thrombin (UniProt P00451 20-2351)
T1 sequence (looked up): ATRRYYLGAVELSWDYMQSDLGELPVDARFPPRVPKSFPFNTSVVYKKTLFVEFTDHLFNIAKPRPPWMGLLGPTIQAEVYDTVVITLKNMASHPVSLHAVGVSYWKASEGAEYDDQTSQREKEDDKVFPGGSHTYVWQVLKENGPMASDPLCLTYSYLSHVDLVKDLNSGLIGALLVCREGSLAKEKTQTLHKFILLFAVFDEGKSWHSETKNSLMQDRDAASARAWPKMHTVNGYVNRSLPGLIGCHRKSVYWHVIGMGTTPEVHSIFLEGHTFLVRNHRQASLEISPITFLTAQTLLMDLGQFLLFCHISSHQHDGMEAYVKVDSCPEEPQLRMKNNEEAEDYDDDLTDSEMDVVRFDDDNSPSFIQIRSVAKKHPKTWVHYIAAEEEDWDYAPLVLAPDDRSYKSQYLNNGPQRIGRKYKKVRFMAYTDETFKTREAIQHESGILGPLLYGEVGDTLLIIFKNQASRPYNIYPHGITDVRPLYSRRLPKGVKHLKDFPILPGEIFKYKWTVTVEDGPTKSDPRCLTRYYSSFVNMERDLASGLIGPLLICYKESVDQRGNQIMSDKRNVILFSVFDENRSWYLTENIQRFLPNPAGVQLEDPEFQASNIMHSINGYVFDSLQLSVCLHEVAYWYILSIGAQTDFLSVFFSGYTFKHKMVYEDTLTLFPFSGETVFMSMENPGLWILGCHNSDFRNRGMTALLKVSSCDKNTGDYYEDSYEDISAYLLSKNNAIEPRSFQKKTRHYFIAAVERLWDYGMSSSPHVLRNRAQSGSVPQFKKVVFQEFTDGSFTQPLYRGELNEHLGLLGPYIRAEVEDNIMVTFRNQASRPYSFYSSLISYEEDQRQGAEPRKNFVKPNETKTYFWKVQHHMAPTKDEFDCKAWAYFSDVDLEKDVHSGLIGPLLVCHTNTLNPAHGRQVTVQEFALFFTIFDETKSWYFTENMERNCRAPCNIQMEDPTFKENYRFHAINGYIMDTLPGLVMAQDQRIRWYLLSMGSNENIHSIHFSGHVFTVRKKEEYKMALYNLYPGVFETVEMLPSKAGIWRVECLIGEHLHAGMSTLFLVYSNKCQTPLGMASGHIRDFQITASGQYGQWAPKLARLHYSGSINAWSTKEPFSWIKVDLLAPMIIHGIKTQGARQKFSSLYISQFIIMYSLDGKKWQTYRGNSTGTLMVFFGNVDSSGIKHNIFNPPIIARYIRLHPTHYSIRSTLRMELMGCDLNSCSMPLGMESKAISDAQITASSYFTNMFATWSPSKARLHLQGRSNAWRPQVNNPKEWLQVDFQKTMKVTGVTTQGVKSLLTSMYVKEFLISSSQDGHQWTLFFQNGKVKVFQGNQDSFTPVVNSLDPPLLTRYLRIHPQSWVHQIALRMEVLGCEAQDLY


What was measured:
[1] = molecular target: T1, Factor VIIIa (FVIIIa), from recombinant …; assay: ratio of KD-app of Catalyst Biosciences WT FIXa to KD-app of the variant, same Xase assay
Text: (§1) The activity of alpha-thrombin was then quenched by the addition of a highly specific thrombin inhibitor, hirudin, prior to initiating the assay.

[2] = molecular target: T1, Factor VIIIa (FVIIIa), from recombinant …; assay: apparent functional KD (KD-app): FX activation rate vs FVIIIa titration, fluorogenic Xase assay with PC/PS vesicles and Ca2+
Text: as §1

[3] = molecular target: T2, plasma purified human AT-III (antithrombin III) (human, UniProt P01008 33-464); assay: K0.5: AT-III/UFH titrated on FIXa, residual activity on fluorogenic substrate
T2 construct: also called AT-III/UFH (in complex with unfractionated heparin)

Row | Binder | KD-WT/KD-mut [1] | Kd [2] | IC50 [3]
1 | FIXa variant R318Y/R338E/R403E/E410N/T412V (enzyme, also called R150Y/R170E/R233E/E240N/T242V) light: YNSGKLEEFVQGNLERECMEEKCSFEEAREVFENTERTTEFWKQYVDGDQCESNPCLNGGSCKDDINSYECWCPFGFEGKNCELDVTCNIKNGRCEQFCKNSADNKVVCSCTEGYRLAENQKSCEPAVPFPCGRVSVSQTSKLTR heavy: VVGGEDAKPGQFPWQVVLNGKVDAFCGGSIVNEKWIVTAAHCVETGVKITVVAGEHNIEETEHTEQKRNVIRIIPHHNYNAAINKYNHDIALLELDEPLVLNSYVTPICIADKEYTNIFLKFGSGYVSGWGRVFHKGYSALVLQYLRVPLVDRATCLESTKFTIYNNMFCAGFHEGGRDSCQGDSGGPHVTEVEGTSFLTGIISWGEECAMKGKYGIYTKVSEYVNWIKNKVKLT | 1.7 fold | 55 nM | 
2 | FIXa variant R318Y/R338E/R403E/E410S (enzyme, also called R150Y/R170E/R233E/E240S) light: YNSGKLEEFVQGNLERECMEEKCSFEEAREVFENTERTTEFWKQYVDGDQCESNPCLNGGSCKDDINSYECWCPFGFEGKNCELDVTCNIKNGRCEQFCKNSADNKVVCSCTEGYRLAENQKSCEPAVPFPCGRVSVSQTSKLTR heavy: VVGGEDAKPGQFPWQVVLNGKVDAFCGGSIVNEKWIVTAAHCVETGVKITVVAGEHNIEETEHTEQKRNVIRIIPHHNYNAAINKYNHDIALLELDEPLVLNSYVTPICIADKEYTNIFLKFGSGYVSGWGRVFHKGYSALVLQYLRVPLVDRATCLESTKFTIYNNMFCAGFHEGGRDSCQGDSGGPHVTEVEGTSFLTGIISWGEECAMKGKYGIYTKVSEYVNWIKSKTKLT | 1.8 fold | 53.1 nM | 
3 | FIXa variant R318Y/R338E/T343R/N346D/R403E/E410N (enzyme, also called R150Y/R170E/T175R/N178D/R233E/E240N) light: YNSGKLEEFVQGNLERECMEEKCSFEEAREVFENTERTTEFWKQYVDGDQCESNPCLNGGSCKDDINSYECWCPFGFEGKNCELDVTCNIKNGRCEQFCKNSADNKVVCSCTEGYRLAENQKSCEPAVPFPCGRVSVSQTSKLTR heavy: VVGGEDAKPGQFPWQVVLNGKVDAFCGGSIVNEKWIVTAAHCVETGVKITVVAGEHNIEETEHTEQKRNVIRIIPHHNYNAAINKYNHDIALLELDEPLVLNSYVTPICIADKEYTNIFLKFGSGYVSGWGRVFHKGYSALVLQYLRVPLVDRATCLESTKFRIYDNMFCAGFHEGGRDSCQGDSGGPHVTEVEGTSFLTGIISWGEECAMKGKYGIYTKVSEYVNWIKNKTKLT | 1.3 fold | 76.2 nM | 
4 | FIXa variant R318Y/R338E/T343R/N346Y/R403E/E410N (enzyme, also called R150Y/R170E/T175R/N178Y/R233E/E240N) light: YNSGKLEEFVQGNLERECMEEKCSFEEAREVFENTERTTEFWKQYVDGDQCESNPCLNGGSCKDDINSYECWCPFGFEGKNCELDVTCNIKNGRCEQFCKNSADNKVVCSCTEGYRLAENQKSCEPAVPFPCGRVSVSQTSKLTR heavy: VVGGEDAKPGQFPWQVVLNGKVDAFCGGSIVNEKWIVTAAHCVETGVKITVVAGEHNIEETEHTEQKRNVIRIIPHHNYNAAINKYNHDIALLELDEPLVLNSYVTPICIADKEYTNIFLKFGSGYVSGWGRVFHKGYSALVLQYLRVPLVDRATCLESTKFRIYYNMFCAGFHEGGRDSCQGDSGGPHVTEVEGTSFLTGIISWGEECAMKGKYGIYTKVSEYVNWIKNKTKLT | 6.1 fold | 15.6 nM | 
5 | FIXa variant R318Y/R338E/T343R/R403E/E410N (enzyme, also called R150Y/R170E/T175R/R233E/E240N) light: YNSGKLEEFVQGNLERECMEEKCSFEEAREVFENTERTTEFWKQYVDGDQCESNPCLNGGSCKDDINSYECWCPFGFEGKNCELDVTCNIKNGRCEQFCKNSADNKVVCSCTEGYRLAENQKSCEPAVPFPCGRVSVSQTSKLTR heavy: VVGGEDAKPGQFPWQVVLNGKVDAFCGGSIVNEKWIVTAAHCVETGVKITVVAGEHNIEETEHTEQKRNVIRIIPHHNYNAAINKYNHDIALLELDEPLVLNSYVTPICIADKEYTNIFLKFGSGYVSGWGRVFHKGYSALVLQYLRVPLVDRATCLESTKFRIYNNMFCAGFHEGGRDSCQGDSGGPHVTEVEGTSFLTGIISWGEECAMKGKYGIYTKVSEYVNWIKNKTKLT | 6.6 fold | 14.5 nM | 
6 | FIXa variant Y155F/K228N/R318Y/R338E/R403E/E410N (enzyme) light: YNSGKLEEFVQGNLERECMEEKCSFEEAREVFENTERTTEFWKQYVDGDQCESNPCLNGGSCKDDINSYECWCPFGFEGKNCELDVTCNIKNGRCEQFCKNSADNKVVCSCTEGYRLAENQKSCEPAVPFPCGRVSVSQTSKLTR heavy: VVGGEDAKPGQFPWQVVLNGKVDAFCGGSIVNEKWIVTAAHCVETGVNITVVAGEHNIEETEHTEQKRNVIRIIPHHNYNAAINKYNHDIALLELDEPLVLNSYVTPICIADKEYTNIFLKFGSGYVSGWGRVFHKGYSALVLQYLRVPLVDRATCLESTKFTIYNNMFCAGFHEGGRDSCQGDSGGPHVTEVEGTSFLTGIISWGEECAMKGKYGIYTKVSEYVNWIKNKTKLT | 3.1 fold | 31.2 nM | 
7 | FIXa variant Y155F/K247N/N249S/N260S (enzyme) light: YNSGKLEEFVQGNLERECMEEKCSFEEAREVFENTERTTEFWKQYVDGDQCESNPCLNGGSCKDDINSYECWCPFGFEGKNCELDVTCNIKNGRCEQFCKNSADNKVVCSCTEGYRLAENQKSCEPAVPFPCGRVSVSQTSKLTR heavy: VVGGEDAKPGQFPWQVVLNGKVDAFCGGSIVNEKWIVTAAHCVETGVKITVVAGEHNIEETEHTEQNRSVIRIIPHHNYSAAINKYNHDIALLELDEPLVLNSYVTPICIADKEYTNIFLKFGSGYVSGWGRVFHKGRSALVLQYLRVPLVDRATCLRSTKFTIYNNMFCAGFHEGGRDSCQGDSGGPHVTEVEGTSFLTGIISWGEECAMKGKYGIYTKVSRYVNWIKEKTKLT | 0.6 fold | 167 nM | 
8 | FIXa variant Y155F/K247N/N249S/R318Y/R338E/E410N (enzyme) light: YNSGKLEEFVQGNLERECMEEKCSFEEAREVFENTERTTEFWKQYVDGDQCESNPCLNGGSCKDDINSYECWCPFGFEGKNCELDVTCNIKNGRCEQFCKNSADNKVVCSCTEGYRLAENQKSCEPAVPFPCGRVSVSQTSKLTR heavy: VVGGEDAKPGQFPWQVVLNGKVDAFCGGSIVNEKWIVTAAHCVETGVKITVVAGEHNIEETEHTEQNRSVIRIIPHHNYNAAINKYNHDIALLELDEPLVLNSYVTPICIADKEYTNIFLKFGSGYVSGWGRVFHKGYSALVLQYLRVPLVDRATCLESTKFTIYNNMFCAGFHEGGRDSCQGDSGGPHVTEVEGTSFLTGIISWGEECAMKGKYGIYTKVSRYVNWIKNKTKLT | 12.8 fold | 7.4 nM | 
9 | FIXa variant Y259F/K265T/Y345T (enzyme, also called Y94F/K98T/Y177T) light: YNSGKLEEFVQGNLERECMEEKCSFEEAREVFENTERTTEFWKQYVDGDQCESNPCLNGGSCKDDINSYECWCPFGFEGKNCELDVTCNIKNGRCEQFCKNSADNKVVCSCTEGYRLAENQKSCEPAVPFPCGRVSVSQTSKLTR heavy: VVGGEDAKPGQFPWQVVLNGKVDAFCGGSIVNEKWIVTAAHCVETGVKITVVAGEHNIEETEHTEQKRNVIRIIPHHNFNAAINTYNHDIALLELDEPLVLNSYVTPICIADKEYTNIFLKFGSGYVSGWGRVFHKGRSALVLQYLRVPLVDRATCLRSTKFTITNNMFCAGFHEGGRDSCQGDSGGPHVTEVEGTSFLTGIISWGEECAMKGKYGIYTKVSRYVNWIKEKTKLT | 0.8 fold | 115 nM | 
10 | FIXa-A103N/N105S/K247N/N249S/R318Y/R338E/R403E/E410N (enzyme) chain 1: YNSGKLEEFVQGNLERECMEEKCSFEEAREVFENTERTTEFWKQYVDGDQCESNPCLNGGSCKDDINSYECWCPFGFEGKNCELDVTCNIKNGRCEQFCKNSNDSKVVCSCTEGYRLAENQKSCEPAVPFPCGRVSVSQTSKLTR chain 2: VVGGEDAKPGQFPWQVVLNGKVDAFCGGSIVNEKWIVTAAHCVETGVKITVVAGEHNIEETEHTEQNRSVIRIIPHHNYNAAINKYNHDIALLELDEPLVLNSYVTPICIADKEYTNIFLKFGSGYVSGWGRVFHKGYSALVLQYLRVPLVDRATCLESTKFTIYNNMFCAGFHEGGRDSCQGDSGGPHVTEVEGTSFLTGIISWGEECAMKGKYGIYTKVSEYVNWIKNKTKLT |  |  | 2500 nM
